For data set [1], the target named is recombinant human stanniocalcin 1, C-terminally myc-his-tagged.
For data set [2], the target named is recombinant human stanniocalcin 2, C-terminally myc-his-tagged.

B1: human PAPP-A2 (pappalysin-2) (protein)
chain: PPEESNQNGGEGSYREAETFNSQVGLPILYFSGRRERLLLRPEVLAEIPREAFTVEAWVKPEGGQNNPAIIAGVFDNCSHTVSDKGWALGIRSGKDKGKRDARFFFSLCTDRVKKATILISHSRYQPGTWTHVAATYDGRHMALYVDGTQVASSLDQSGPLNSPFMASCRSLLLGGDSSEDGHYFRGHLGTLVFWSTALPQSHFQHSSQHSSGEEEATDLVLTASFEPVNTEWVPFRDEKYPRLEVLQGFEPEPEILSPLQPPLCGQTVCDNVELISQYNGYWPLRGEKVIRYQVVNICDDEGLNPIVSEEQIRLQHEALNEAFSRYNISWQLSVHQVHNSTLRHRVVLVNCEPSKIGNDHCDPECEHPLTGYDGGDCRLQGRCYSWNRRDGLCHVECNNMLNDFDDGDCCDPQVADVRKTCFDPDSPKRAYMSVKELKEALQLNSTHFLNIYFASSVREDLAGAATWPWDKDAVTHLGGIVLSPAYYGMPGHTDTMIHEVGHVLGLYHVFKGVSERESCNDPCKETVPSMETGDLCADTAPTPKSELCREPEPTSDTCGFTRFPGAPFTNYMSYTDDNCTDNFTPNQVARMHCYLDLVYQQWTESRKPTPIPIPPMVIGQTNKSLTIHWLPPISGVVYDRASGSLCGACTEDGTFRQYVHTASSRRVCDSSGYWTPEEAVGPPDVDQPCEPSLQAWSPEVHLYHMNMTVPCPTEGCSLELLFQHPVQADTLTLWVTSFFMESSQVLFDTEILLENKESVHLGPLDTFCDIPLTIKLHVDGKVSGVKVYTFDERIEIDAALLTSQPHSPLCSGCRPVRYQVLRDPPFASGLPVVVTHSHRKFTDVEVTPGQMYQYQVLAEAGGELGEASPPLNHIHGAPYCGDGKVSERLGEECDDGDLVSGDGCSKVCELEEGFNCVGEPSLCYMYEGDGICEPFERKTSIVDCGIYTPKGYLDQWATRAYSSHEDKKKCPVSLVTGEPHSLICTSYHPDLPNHRPLTGWFPCVASENETQDDRSEQPEGSLKKEDEVWLKVCFNRPGEARAIFIFLTTDGLVPGEHQQPTVTLYLTDVRGSNHSLGTYGLSCQHNPLIINVTHHQNVLFHHTTSVLLNFSSPRVGISAVALRTSSRIGLSAPSNCISEDEGQNHQGQSCIHRPCGKQDSCPSLLLDHADVVNCTSIGPGLMKCAITCQRGFALQASSGQYIRPMQKEILLTCSSGHWDQNVSCLPVDCGVPDPSLVNYANFSCSEGTKFLKRCSISCVPPAKLQGLSPWLTCLEDGLWSLPEVYCKLECDAPPIILNANLLLPHCLQDNHDVGTICKYECKPGYYVAESAEGKVRNKLLKIQCLEGGIWEQGSCIPVVCEPPPPVFEGMYECTNGFSLDSQCVLNCNQEREKLPILCTKEGLWTQEFKLCENLQGECPPPPSELNSVEYKCEQGYGIGAVCSPLCVIPPSDPVMLPENITADTLEHWMEPVKVQSIVCTGRRQWHPDPVLVHCIQSCEPFQADGWCDTINNRAYCHYDGGDCCSSTLSSKKVIPFAADCDLDECTCRDPKAEENQ
On to B1, for which the “cleavage of 125I-IGFBP-5 by PAPP-A2” value in data set [1] and in data set [2] was “both STCs were able to partially inhibit PAPP-A2 (pappalysin-2)” in each case.

B2: human matriptase (protein)
chain: VVGGTDADEGEWPWQVSLHALGQGHICGASLISPNWLVSAAHCYIDDRGFRYSDPTQWTAFLGLHDQSQRSAPGVQERRLKRIISHPFFNDFTFDYDIALLELEKPAEYSSMVRPICLPDASHVFPAGKAIWVTGWGHTQYGGTGALILQKGEIRVINQTTCENLLPQQITPRMMCVGFLSGGVDSCQGDSGGPLSSVEADGRIFQAGVVSWGDGCAQRNKPGVYTRLPLFRDWIKENTGV
With B2, in data set [1], the “cleavage of 125I-IGFBP-5 by the proteinase with a 10-fold molar excess of STC” value is recorded as “None of the proteinases tested was inhibited by STC1, or by STC2 following incubation”. Also, in data set [2], the “cleavage of 125I-IGFBP-5 by the proteinase with a 10-fold molar excess of STC, 8 h preincubation” value is listed as “None of the proteinases tested was inhibited by STC1, or by STC2 following incubation”.

B3: recombinant human PAPP-A (pregnancy-associated plasma protein-A, pappalysin-1) (protein)
chain: EARGATEEPSPPSRALYFSGRGEQLRLRADLELPRDAFTLQVWLRAEGGQRSPAVITGLYDKCSYISRDRGWVVGIHTISDQDNKDPRYFFSLKTDRARQVTTINAHRSYLPGQWVYLAATYDGQFMKLYVNGAQVATSGEQVGGIFSPLTQKCKVLMLGGSALNHNYRGYIEHFSLWKVARTQREILSDMETHGAHTALPQLLLQENWDNVKHAWSPMKDGSSPKVEFSNAHGFLLDTSLEPPLCGQTLCDNTEVIASYNQLSSFRQPKVVRYRVVNLYEDDHKNPTVTREQVDFQHHQLAEAFKQYNISWELDVLEVSNSSLRRRLILANCDISKIGDENCDPECNHTLTGHDGGDCRHLRHPAFVKKQHNGVCDMDCNYERFNFDGGECCDPEITNVTQTCFDPDSPHRAYLDVNELKNILKLDGSTHLNIFFAKSSEEELAGVATWPWDKEALMHLGGIVLNPSFYGMPGHTHTMIHEIGHSLGLYHVFRGISEIQSCSDPCMETEPSFETGDLCNDTNPAPKHKSCGDPGPGNDTCGFHSFFNTPYNNFMSYADDDCTDSFTPNQVARMHCYLDLVYQGWQPSRKPAPVALAPQVLGHTTDSVTLEWFPPIDGHFFERELGSACHLCLEGRILVQYASNASSPMPCSPSGHWSPREAEGHPDVEQPCKSSVRTWSPNSAVNPHTVPPACPEPQGCYLELEFLYPLVPESLTIWVTFVSTDWDSSGAVNDIKLLAVSGKNISLGPQNVFCDVPLTIRLWDVGEEVYGIQIYTLDEHLEIDAAMLTSTADTPLCLQCKPLKYKVVRDPPLQMDVASILHLNRKFVDMDLNLGSVYQYWVITISGTEESEPSPAVTYIHGSGYCGDGIIQKDQGEQCDDMNKINGDGCSLFCRQEVSFNCIDEPSRCYFHDGDGVCEEFEQKTSIKDCGVYTPQGFLDQWASNASVSHQDQQCPGWVIIGQPAASQVCRTKVIDLSEGISQHAWYPCTISYPYSQLAQTTFWLRAYFSQPMVAAAVIVHLVTDGTYYGDQKQETISVQLLDTKDQSHDLGLHVLSCRNNPLIIPVVHDLSQPFYHSQAVRVSFSSPLVAISGVALRSFDNFDPVTLSSCQRGETYSPAEQSCVHFACEKTDCPELAVENASLNCSSSDRYHGAQCTVSCRTGYVLQIRRDDELIKSQTGPSVTVTCTEGKWNKQVACEPVDCSIPDHHQVYAASFSCPEGTTFGSQCSFQCRHPAQLKGNNSLLTCMEDGLWSFPEALCELMCLAPPPVPNADLQTARCRENKHKVGSFCKYKCKPGYHVPGSSRKSKKRAFKTQCTQDGSWQEGACVPVTCDPPPPKFHGLYQCTNGFQFNSECRIKCEDSDASQGLGSNVIHCRKDGTWNGSFHVCQEMQGQCSVPNELNSNLKLQCPDGYAIGSECATSCLDHNSESIILPMNVTVRDIPHWLNPTRVERVVCTAGLKWYPHPALIHCVKGCEPFMGDNYCDAINNRAFCNYDGGDCCTSTVKTKKVTPFPMSCDLQGDCACRDPQAQEHSRKDLRGYSHG
For the protein B3, the “PAPP-A cleavage of IGFBP-4 with purified STC added at the beginning of the cleavage reaction” value in data set [1] is “STC1 still inhibited PAPP-A”. In data set [2], the “PAPP-A cleavage of IGFBP-4 with purified STC added at the beginning of the cleavage reaction” value was “in this experiment, no inhibitory effect of STC2 was observed”; the “PAPP-A mediated cleavage of 125I-IGFBP-4 after overnight pre-incubation” value is reported as “the presence of STC2 fully inhibited PAPP-A mediated IGFBP-4 cleavage”; the “PAPP-A proteolytic activity towards IGFBP-4 after 16 h incubation” value was “after 16 hours of incubation with STC2, PAPP-A showed no activity”.

B4: human ADAM-10 (protein)
chain: TTSAEKNTCQLYIQTDHLFFKYYGTREAVIAQISSHVKAIDTIYQTTDFSGIRNISFMVKRIRINTTADEKDPTNPFRFPNIGVEKFLELNSEQNHDDYCLAYVFTDRDFDDGVLGLAWVGAPSGSSGGICEKSKLYSDGKKKSLNTGIITVQNYGSHVPPKVSHITFAHEVGHNFGSPHDSGTECTPGESKNLGQKENGNYIMYARATSGDKLNNNKFSLCSIRNISQVLEKKRNNCFVESGQPICGNGMVEQGEECDCGYSDQCKDECCFDANQPEGRKCKLKPGKQCSPSQGPCCTAQCAFKSKSEKCRDDSDCAREGICNGFTALCPASDPKPNFTDCNRHTQVCINGQCAGSICEKYGLEECTCASSDGKDDKELCHVCCMKKMDPSTCASTGSVQWSRHFSGRTITLQPGSPCNDFRGYCDVFMRCRLVDADGPLARLKKAIFSPELYENIAE
Take B4: in data set [1], the “cleavage of 125I-IGFBP-5 by the proteinase with a 10-fold molar excess of STC” value was “None of the proteinases tested was inhibited by STC1, or by STC2 following incubation”. The “cleavage of 125I-IGFBP-5 by the proteinase with a 10-fold molar excess of STC, 8 h preincubation” value in data set [2] is “None of the proteinases tested was inhibited by STC1, or by STC2 following incubation”.

B5: human matrix metalloproteinase-2 (protein)
chain: APSPIIKFPGDVAPKTDKELAVQYLNTFYGCPKESCNLFVLKDTLKKMQKFFGLPQTGDLDQNTIETMRKPRCGNPDVANYNFFPRKPKWDKNQITYRIIGYTPDLDPETVDDAFARAFQVWSDVTPLRFSRIHDGEADIMINFGRWEHGDGYPFDGKDGLLAHAFAPGTGVGGDSHFDDDELWTLGEGQVVRVKYGNADGEYCKFPFLFNGKEYNSCTDTGRSDGFLWCSTTYNFEKDGKYGFCPHEALFTMGGNAEGQPCKFPFRFQGTSYDSCTTEGRTDGYRWCGTTEDYDRDKKYGFCPETAMSTVGGNSEGAPCVFPFTFLGNKYESCTSAGRSDGKMWCATTANYDDDRKWGFCPDQGYSLFLVAAHEFGHAMGLEHSQDPGALMAPIYTYTKNFRLSQDDIKGIQELYGASPDIDLGTGPTPTLGPVTPEICKQDIVFDGIAQIRGEIFFFKDRFIWRTVTPRDKPMGPLLVATFWPELPEKIDAVYEAPQEEKAVFFAGNEYWIYSASTLERGYPKPLTSLGLPPDVQRVDAAFNWSKNKKTYIFAGDKFWRYNEVKKKMDPGFPKLIADAWNAIPDNLDAVVDLQGGGHSYFFKGAYYLKLENQSLKSVKFGSIKSDWLGC
Consider B5, for which, in data set [1], the “cleavage of 125I-IGFBP-5 by the proteinase with a 10-fold molar excess of STC” value is given as “None of the proteinases tested was inhibited by STC1, or by STC2 following incubation”. Also, the “cleavage of 125I-IGFBP-5 by the proteinase with a 10-fold molar excess of STC, 8 h preincubation” value in data set [2] was “None of the proteinases tested was inhibited by STC1, or by STC2 following incubation”.

(Values after patent US20200261490.)
